From publication doi:10.1101/2020.10.21.349480 (2020)

Tests used:
[1] = biological target: T1, mouse collagen I (mouse, UniProt P11087 152-1207; Q01149 86-1125); test: BLI; analysis by molarity
[2] = biological target: T2, rat collagen III (rat, UniProt P13941 155-1218); test: BLI; analysis by molarity
T2 chain: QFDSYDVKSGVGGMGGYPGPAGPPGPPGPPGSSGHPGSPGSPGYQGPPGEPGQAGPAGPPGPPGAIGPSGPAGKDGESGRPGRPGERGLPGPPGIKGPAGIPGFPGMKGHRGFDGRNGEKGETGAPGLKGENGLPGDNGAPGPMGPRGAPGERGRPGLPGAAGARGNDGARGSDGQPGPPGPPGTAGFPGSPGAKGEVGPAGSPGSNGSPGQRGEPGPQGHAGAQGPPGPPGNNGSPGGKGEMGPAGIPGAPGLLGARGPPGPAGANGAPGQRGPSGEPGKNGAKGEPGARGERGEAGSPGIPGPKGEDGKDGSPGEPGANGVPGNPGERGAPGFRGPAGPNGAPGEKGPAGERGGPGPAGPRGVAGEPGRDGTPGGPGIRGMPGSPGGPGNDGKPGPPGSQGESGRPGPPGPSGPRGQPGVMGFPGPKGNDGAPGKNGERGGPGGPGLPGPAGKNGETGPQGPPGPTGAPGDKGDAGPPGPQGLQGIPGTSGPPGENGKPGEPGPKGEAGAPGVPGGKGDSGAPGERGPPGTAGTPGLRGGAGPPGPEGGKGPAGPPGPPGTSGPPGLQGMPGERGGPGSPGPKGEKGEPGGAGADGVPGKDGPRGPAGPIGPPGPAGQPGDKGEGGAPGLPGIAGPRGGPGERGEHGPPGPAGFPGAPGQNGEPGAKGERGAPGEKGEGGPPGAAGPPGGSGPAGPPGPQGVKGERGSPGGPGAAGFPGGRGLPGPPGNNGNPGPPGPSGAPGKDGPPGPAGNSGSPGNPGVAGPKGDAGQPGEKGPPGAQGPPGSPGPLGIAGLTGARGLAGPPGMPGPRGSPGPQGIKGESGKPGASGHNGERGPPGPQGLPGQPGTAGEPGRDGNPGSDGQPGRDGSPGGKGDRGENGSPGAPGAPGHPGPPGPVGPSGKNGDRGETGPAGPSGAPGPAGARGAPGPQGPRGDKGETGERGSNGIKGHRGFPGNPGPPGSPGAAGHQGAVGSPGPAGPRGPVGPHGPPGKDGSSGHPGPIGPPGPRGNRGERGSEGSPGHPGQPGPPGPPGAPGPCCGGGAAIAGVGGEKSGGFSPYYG

[3] = biological target: T3, rat collagen I (rat, UniProt P02454 152-1207; P02466 86-1125); test: BLI; analysis by molarity
[4] = biological target: T4, human collagen III (human, UniProt P02461 154-1221); test: BLI; analysis by molarity
T4 chain: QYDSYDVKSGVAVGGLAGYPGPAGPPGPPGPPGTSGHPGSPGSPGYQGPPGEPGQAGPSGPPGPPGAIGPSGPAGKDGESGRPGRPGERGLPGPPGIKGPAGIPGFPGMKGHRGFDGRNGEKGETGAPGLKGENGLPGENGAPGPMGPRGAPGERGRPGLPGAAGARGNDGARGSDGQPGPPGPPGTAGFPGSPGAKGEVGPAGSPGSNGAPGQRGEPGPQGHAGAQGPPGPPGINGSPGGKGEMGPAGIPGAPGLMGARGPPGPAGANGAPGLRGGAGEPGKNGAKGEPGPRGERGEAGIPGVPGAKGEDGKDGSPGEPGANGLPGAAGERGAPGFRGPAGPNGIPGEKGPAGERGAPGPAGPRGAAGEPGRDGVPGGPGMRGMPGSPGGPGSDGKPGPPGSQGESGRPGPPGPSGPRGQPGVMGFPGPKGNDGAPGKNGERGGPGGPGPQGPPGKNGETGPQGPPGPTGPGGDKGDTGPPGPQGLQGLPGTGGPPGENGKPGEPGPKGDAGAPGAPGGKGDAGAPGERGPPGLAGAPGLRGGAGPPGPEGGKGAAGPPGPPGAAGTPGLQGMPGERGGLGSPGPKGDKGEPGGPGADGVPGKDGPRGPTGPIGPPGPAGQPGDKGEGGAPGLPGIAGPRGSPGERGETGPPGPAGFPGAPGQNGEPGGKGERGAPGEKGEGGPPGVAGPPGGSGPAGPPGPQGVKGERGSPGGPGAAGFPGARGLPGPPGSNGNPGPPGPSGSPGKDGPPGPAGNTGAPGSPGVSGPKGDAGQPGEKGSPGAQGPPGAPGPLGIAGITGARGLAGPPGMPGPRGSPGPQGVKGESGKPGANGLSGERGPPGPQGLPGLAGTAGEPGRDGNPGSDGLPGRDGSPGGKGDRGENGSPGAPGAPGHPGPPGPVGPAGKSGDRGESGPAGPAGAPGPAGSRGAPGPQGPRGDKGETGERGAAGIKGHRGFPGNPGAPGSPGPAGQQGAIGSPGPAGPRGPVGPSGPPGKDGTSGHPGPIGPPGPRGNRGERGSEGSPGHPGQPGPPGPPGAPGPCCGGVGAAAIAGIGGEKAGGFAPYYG

[5] = biological target: T5, human collagen I (human, UniProt P02452 162-1218; P08123 80-1119); test: BLI; analysis by molarity
[6] = biological target: T1, mouse collagen I; test: BLI; analysis by binding sites/mol
[7] = biological target: T2, rat collagen III; test: BLI; analysis by binding sites/mol
[8] = biological target: T3, rat collagen I; test: BLI; analysis by binding sites/mol
[9] = biological target: T4, human collagen III; test: BLI; analysis by binding sites/mol
[10] = biological target: T5, human collagen I; test: BLI; analysis by binding sites/mol
[11] = biological target: T1, mouse collagen I; test: BLI; apparent KD, analysis by binding sites/mol
[12] = biological target: T2, rat collagen III; test: BLI; apparent KD, analysis by binding sites/mol
[13] = biological target: T3, rat collagen I; test: BLI; apparent KD, analysis by binding sites/mol
[14] = biological target: T4, human collagen III; test: BLI; apparent KD, analysis by binding sites/mol
[15] = biological target: T5, human collagen I; test: BLI; apparent KD, analysis by binding sites/mol
[16] = biological target: T1, mouse collagen I; test: BLI; apparent KD (avidity), analysis by molarity
[17] = biological target: T2, rat collagen III; test: BLI; apparent KD (avidity), analysis by molarity
[18] = biological target: T3, rat collagen I; test: BLI; apparent KD (avidity), analysis by molarity
[19] = biological target: T4, human collagen III; test: BLI; apparent KD (avidity), analysis by molarity
[20] = biological target: T5, human collagen I; test: BLI; apparent KD (avidity), analysis by molarity

T3 sequence (P02454 152-1207, chain 1 of 2): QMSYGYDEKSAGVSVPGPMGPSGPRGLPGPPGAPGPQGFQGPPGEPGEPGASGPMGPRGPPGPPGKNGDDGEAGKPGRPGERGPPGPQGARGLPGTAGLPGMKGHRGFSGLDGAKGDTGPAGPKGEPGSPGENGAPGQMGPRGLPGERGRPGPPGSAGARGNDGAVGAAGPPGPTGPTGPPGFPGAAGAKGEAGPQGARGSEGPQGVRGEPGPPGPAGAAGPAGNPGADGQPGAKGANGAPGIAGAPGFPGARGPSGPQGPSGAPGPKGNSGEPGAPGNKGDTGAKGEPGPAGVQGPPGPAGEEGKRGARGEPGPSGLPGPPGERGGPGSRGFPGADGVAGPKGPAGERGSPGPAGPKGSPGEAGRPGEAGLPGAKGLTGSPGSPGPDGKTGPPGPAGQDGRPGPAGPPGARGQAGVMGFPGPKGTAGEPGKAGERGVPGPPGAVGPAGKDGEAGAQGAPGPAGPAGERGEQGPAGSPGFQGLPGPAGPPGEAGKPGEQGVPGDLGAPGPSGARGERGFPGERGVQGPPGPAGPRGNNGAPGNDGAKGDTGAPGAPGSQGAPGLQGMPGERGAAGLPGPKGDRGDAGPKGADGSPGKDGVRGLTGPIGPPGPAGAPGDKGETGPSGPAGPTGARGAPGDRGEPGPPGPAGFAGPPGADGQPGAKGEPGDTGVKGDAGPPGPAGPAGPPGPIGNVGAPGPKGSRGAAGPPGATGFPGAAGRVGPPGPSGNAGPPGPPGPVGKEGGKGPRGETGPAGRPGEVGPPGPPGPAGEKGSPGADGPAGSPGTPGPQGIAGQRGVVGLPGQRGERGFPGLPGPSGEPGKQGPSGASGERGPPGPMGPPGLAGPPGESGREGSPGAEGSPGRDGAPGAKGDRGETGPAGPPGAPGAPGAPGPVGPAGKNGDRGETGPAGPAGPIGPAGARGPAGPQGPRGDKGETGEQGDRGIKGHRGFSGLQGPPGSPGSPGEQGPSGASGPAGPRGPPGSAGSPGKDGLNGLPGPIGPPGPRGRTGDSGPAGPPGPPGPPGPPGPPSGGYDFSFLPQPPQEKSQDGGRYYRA
T3 sequence (P02466 86-1125, chain 2 of 2): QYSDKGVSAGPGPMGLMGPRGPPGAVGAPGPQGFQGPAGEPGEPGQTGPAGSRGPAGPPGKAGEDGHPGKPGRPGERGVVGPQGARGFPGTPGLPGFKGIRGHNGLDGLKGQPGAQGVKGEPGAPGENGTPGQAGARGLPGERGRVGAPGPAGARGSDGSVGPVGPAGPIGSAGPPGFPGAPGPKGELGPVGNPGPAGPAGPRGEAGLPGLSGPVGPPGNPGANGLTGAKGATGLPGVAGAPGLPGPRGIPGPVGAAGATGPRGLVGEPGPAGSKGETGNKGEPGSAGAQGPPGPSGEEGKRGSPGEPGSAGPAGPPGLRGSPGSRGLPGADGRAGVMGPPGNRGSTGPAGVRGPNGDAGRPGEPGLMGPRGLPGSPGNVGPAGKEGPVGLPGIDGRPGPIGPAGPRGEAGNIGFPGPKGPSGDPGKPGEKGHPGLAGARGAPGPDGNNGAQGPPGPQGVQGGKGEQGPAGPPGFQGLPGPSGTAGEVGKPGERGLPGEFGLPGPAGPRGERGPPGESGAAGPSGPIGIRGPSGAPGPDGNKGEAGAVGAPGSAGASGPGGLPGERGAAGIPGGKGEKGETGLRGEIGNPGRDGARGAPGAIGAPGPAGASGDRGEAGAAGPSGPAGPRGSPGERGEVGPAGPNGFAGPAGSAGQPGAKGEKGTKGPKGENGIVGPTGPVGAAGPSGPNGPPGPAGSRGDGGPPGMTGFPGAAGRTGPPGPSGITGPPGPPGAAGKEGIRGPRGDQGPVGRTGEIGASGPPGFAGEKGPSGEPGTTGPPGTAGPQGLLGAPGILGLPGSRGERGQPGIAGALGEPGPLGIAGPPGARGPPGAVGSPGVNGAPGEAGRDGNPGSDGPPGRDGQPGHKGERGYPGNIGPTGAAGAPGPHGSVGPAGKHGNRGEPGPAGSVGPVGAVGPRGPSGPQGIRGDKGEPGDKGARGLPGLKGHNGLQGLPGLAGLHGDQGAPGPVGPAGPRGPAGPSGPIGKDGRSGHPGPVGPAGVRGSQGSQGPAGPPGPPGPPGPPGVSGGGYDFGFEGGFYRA
T5 sequence (P02452 162-1218, chain 1 of 2): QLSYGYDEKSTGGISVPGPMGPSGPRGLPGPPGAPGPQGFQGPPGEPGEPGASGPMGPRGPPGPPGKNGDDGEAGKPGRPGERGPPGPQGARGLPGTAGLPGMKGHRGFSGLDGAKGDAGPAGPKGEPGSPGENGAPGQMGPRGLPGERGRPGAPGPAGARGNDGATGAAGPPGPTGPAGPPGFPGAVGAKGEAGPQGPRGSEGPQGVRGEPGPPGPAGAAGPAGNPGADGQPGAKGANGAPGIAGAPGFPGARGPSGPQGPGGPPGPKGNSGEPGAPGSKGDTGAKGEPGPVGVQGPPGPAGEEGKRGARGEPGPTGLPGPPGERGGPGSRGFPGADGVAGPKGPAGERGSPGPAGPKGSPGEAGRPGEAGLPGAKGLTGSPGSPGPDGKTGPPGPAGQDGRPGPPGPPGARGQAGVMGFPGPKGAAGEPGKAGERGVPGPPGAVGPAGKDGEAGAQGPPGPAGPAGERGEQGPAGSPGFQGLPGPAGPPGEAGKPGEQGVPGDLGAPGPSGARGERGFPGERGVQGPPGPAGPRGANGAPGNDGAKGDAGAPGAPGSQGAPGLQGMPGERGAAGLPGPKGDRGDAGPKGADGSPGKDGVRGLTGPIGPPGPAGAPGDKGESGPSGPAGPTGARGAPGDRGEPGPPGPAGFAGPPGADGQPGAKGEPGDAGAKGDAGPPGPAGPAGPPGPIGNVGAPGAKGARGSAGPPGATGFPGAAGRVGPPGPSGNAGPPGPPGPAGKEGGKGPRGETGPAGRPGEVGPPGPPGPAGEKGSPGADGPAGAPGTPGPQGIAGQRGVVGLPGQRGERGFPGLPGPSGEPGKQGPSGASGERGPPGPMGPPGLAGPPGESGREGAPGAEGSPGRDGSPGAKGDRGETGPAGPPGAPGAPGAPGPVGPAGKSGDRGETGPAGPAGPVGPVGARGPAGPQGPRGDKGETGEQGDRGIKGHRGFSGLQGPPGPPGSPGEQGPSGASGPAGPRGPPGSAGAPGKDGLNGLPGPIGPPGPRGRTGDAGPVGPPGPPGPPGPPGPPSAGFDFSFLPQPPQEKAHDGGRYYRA
T5 sequence (P08123 80-1119, chain 2 of 2): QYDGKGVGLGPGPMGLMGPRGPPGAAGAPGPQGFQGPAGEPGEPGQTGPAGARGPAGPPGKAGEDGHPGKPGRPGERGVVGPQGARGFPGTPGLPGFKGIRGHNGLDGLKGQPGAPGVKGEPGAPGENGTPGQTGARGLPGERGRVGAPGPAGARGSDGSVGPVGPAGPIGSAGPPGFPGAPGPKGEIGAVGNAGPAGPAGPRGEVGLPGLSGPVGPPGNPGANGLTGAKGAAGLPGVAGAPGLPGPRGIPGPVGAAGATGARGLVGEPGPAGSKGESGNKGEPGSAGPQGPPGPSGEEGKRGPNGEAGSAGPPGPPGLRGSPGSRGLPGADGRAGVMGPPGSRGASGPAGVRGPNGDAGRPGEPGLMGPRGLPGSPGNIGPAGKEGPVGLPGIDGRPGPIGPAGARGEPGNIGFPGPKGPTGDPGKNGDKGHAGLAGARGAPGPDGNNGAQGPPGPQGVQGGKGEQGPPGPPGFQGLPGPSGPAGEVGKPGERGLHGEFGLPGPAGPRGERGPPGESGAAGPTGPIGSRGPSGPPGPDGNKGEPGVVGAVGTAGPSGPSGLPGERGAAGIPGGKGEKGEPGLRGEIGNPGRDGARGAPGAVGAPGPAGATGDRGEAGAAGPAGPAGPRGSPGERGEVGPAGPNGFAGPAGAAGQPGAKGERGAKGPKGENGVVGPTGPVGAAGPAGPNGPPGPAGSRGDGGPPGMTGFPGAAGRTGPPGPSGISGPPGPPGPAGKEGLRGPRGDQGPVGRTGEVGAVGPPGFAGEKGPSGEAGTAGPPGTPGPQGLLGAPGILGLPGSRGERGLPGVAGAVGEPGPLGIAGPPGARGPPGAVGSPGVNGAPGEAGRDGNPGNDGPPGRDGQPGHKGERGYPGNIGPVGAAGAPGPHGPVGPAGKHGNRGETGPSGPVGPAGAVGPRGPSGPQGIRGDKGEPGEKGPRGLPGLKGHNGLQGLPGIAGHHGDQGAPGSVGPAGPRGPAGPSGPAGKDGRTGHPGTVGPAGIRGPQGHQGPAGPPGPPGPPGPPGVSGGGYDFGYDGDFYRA

koff [1]: 0.000194 s⁻¹
koff [2]: 0.000433 s⁻¹
koff [3]: 0.000241 s⁻¹
koff [4]: 0.000241 s⁻¹
koff [5]: 0.000186 s⁻¹
koff [6]: 0.000194 s⁻¹
koff [7]: 0.000432 s⁻¹
koff [8]: 0.000241 s⁻¹
koff [9]: 0.000241 s⁻¹
koff [10]: 0.000184 s⁻¹
Kd [11]: 12.5 nM
Kd [12]: 115 nM
Kd [13]: 3.74 nM
Kd [14]: 47 nM
Kd [15]: 17.2 nM
Kd [16]: 0.0918 nM
Kd [17]: 0.878 nM
Kd [18]: 0.0387 nM
Kd [19]: 0.51 nM
Kd [20]: 0.126 nM
B1: NC410, LAIR-2 human IgG1 Fc fusion protein (Fc fusion)
chain: QEGALPRPSISAEPGTVISPGSHVTFMCRGPVGVQTFRLEREDRAKYKDSYNVFRLGPSESEARFHIDSVSEGNAGLYRCLYYKPPGWSEHSDFLELLVKESSGGPDSPDTEPGSSAGTVPGTEASGFDAP
